Test results published in US20240294650A1.

Target: endogenous murine MerTK on bone marrow-derived macrophages (mouse) (UniProt Q60805)
Test: FACS, mouse BMDM, WT minus MerTK KO

endogenous murine MerTK on bone marrow-derived macrophages (mouse), sequence (Q60805 19-994): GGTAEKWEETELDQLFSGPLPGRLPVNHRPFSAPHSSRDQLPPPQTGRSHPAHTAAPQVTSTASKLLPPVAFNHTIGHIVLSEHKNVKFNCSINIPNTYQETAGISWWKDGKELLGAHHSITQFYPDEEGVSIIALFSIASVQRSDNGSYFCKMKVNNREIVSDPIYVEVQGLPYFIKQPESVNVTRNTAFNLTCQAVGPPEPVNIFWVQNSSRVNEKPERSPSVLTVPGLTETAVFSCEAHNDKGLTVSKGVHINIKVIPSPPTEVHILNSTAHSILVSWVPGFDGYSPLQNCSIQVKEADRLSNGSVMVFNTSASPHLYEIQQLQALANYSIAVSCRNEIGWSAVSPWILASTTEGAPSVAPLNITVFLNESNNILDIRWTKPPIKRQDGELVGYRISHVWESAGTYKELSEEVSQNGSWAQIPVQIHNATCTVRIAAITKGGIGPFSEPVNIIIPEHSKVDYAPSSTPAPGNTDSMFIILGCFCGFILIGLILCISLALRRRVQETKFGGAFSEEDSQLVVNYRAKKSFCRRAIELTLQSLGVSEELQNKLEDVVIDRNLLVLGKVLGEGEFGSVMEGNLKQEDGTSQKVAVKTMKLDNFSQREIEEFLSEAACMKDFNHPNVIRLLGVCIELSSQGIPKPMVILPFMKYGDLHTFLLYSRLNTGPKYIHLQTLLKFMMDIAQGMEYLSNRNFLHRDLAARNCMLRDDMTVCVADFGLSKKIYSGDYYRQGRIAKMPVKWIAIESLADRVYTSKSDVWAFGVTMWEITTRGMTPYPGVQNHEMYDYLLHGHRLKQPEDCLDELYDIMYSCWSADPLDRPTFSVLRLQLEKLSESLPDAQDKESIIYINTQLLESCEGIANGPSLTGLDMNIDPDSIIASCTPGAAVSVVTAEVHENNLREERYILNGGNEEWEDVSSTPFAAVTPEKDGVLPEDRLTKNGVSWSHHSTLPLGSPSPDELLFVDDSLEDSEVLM

| MFI | Binder |
| --- | --- |
| 1270 MFI | MTK-210 (antibody, human IgG1, V domains shown) VH: QVQLQQSGPELVKPGASVKISCKASDYEFSRSWMNWVKQRPGKGLEWIGRIYPGDGDTNYNGKFKGKATLTADKSSNTAYMQLNSLTSEDSAVYFCARKGGYYYSISNYFDYWGQGTTLTVSS VL: QIVLTQSPAIMSASPGVKVTMTCSASSSVSYMHWYQQKPGSSPRLLIYDTSNLASGVPVRFSGSGSGTSYSLTISRMEAEDAATYYCQQWSSYPPYTFGGGTKLEIK |
| 993 MFI | MTK-221 (antibody, human IgG1, V domains shown) VH: QVTLKESGPGMLQSSQTLSLTCSFSGFSLSTSGMGVSWIRQPSGKGLEWLAHIYWDDDKRYNTSLQSRLTISKDTSRNQVFLKITSVDTADTATYFCGRLGAYSAFPYYFDYWGQGTTLTVSS VL: DIQMTQSPSSLSASLGGKVTITCKASQDIHKHIAWYQHKPGKGPRLLIHYTSTLQPGIPSRFSGSGSGRDYSFSISNLEPEDLATYYCLQYDNLWTFGGGTKLEIK |
| 1130 MFI | MTK-217 (antibody, human IgG1, V domains shown) VH: QVQLQQPGTEVVKPGASVKMSCRASGYTFTSYWITWVKQRPGQGLEWIGDIHPGSGINNYNEKFRSKATLTVDTSSSTVYMELSSLTSEDSAVYYCAKGGYYGSSYYVMDYWGQGTSVTVSS VL: DILLTQSPAILSVSPGERVSFSCRASQTIGTSIHWYQQRTNDSPRLLIKYASESISGIPSRFSGSGSGTDFTLSINSVESEDIADYYCQQSNDWPYTFGGGTKLEIK |

The next lines start with the binder.

| Binder | MFI |
| --- | --- |
| MTK-201 (antibody, human IgG1, V domains shown) VH: QVQLRQSGPGLVQPSQSLSITCTVSGFSLSNYGLHWVRQSPGKGLEWLGVIWSGGITDYNAAFISRLSIIKDNSRSQVFFKMNSLQADDTAIYYCARKGHDPYAMDFWGQGTSVTVSS VL: QIVLTQSPPIMSAFLGERVTMTCTASSSVSSSYLHWYRQMPGSSPKLWIYDTSNLASGVPARFSGSGSGTSYSLTISSMEAEDAATYYCHQYHHSPYTFGGGTKLEIK | 1030 MFI |
| MTK-208 (antibody, human IgG1, V domains shown) VH: QVQLQQPGAELVVPGASVRLSCKASGYTFINYWMHWVKQRPGQGLEWIGEIDPSDSYANYNQKFKDKSTLSLDKSSSTAYMQLSSLTSEDSAVYYCARCDYYGRLDYWGQGTTLTVSS VL: QVVLTQSPAIMSASPGEKVTITCSASSSVSYMLWFQQKPGTSPKLWIYSTSNLASGVPARFSGSGSGTSYSLTISRLEAEDAATYYCQQRSSYPPITFGAGTKLELK | 1170 MFI |
